Assay results from US20230331811A1, “IMMOBILIZED SELF-ASSEMBLED PROTEIN MULTIMERS” (CCOA THERAPEUTICS INC., priority 2020, published 2023).

Tests used:
[1] = target: Recombinant human ectodomain αIIbβ3, inactive (before activation) (human) (UniProt P08514); assay: flow cytometry, 50 nM Alexa488-fibrinogen on inactive αIIbβ3 beads
[2] = target: Recombinant human ectodomain αIIbβ3, inactive (before activation) (human) (UniProt P08514); assay: flow cytometry, 50 nM FITC-PAC 1 on inactive αIIbβ3 beads
[3] = target: Recombinant human ectodomain αIIbβ3, activated (high-affinity ligand binding conformation) (human) (UniProt P08514); assay: flow cytometry, 50 nM FITC-PAC 1 on activated αIIbβ3 beads
Recombinant human ectodomain αIIbβ3, activated (high-affinity ligand binding conformation) (human), sequence (P08514 other isoform, or with tags, fused parts or gaps limits assumed, chain 1 of 2): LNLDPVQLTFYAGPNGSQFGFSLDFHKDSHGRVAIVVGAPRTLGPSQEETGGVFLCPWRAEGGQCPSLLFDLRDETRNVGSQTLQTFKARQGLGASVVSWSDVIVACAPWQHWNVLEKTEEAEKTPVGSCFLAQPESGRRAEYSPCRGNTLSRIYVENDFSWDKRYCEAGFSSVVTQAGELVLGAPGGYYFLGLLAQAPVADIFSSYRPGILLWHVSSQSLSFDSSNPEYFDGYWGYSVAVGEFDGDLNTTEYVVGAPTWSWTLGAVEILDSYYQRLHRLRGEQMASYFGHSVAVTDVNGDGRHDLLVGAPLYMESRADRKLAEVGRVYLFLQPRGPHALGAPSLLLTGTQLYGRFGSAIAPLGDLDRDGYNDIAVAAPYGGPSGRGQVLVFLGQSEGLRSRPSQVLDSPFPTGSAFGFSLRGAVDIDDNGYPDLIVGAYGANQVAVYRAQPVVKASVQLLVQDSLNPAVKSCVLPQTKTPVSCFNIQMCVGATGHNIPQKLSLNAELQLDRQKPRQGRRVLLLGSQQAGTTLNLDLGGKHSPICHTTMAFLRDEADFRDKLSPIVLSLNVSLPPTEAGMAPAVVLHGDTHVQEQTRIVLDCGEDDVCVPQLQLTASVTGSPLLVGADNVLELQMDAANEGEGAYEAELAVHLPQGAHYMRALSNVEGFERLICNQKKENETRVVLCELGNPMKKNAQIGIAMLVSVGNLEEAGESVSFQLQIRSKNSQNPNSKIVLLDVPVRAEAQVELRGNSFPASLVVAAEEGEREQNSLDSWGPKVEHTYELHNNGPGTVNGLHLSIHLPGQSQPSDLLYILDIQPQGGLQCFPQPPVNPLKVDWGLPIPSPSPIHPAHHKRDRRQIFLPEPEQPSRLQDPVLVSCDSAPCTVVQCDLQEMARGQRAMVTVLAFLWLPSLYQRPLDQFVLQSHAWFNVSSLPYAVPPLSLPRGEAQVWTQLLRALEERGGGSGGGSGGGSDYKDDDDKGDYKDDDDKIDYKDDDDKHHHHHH
Recombinant human ectodomain αIIbβ3, activated (high-affinity ligand binding conformation) (human), sequence (chain, as listed by the source limits assumed, chain 2 of 2): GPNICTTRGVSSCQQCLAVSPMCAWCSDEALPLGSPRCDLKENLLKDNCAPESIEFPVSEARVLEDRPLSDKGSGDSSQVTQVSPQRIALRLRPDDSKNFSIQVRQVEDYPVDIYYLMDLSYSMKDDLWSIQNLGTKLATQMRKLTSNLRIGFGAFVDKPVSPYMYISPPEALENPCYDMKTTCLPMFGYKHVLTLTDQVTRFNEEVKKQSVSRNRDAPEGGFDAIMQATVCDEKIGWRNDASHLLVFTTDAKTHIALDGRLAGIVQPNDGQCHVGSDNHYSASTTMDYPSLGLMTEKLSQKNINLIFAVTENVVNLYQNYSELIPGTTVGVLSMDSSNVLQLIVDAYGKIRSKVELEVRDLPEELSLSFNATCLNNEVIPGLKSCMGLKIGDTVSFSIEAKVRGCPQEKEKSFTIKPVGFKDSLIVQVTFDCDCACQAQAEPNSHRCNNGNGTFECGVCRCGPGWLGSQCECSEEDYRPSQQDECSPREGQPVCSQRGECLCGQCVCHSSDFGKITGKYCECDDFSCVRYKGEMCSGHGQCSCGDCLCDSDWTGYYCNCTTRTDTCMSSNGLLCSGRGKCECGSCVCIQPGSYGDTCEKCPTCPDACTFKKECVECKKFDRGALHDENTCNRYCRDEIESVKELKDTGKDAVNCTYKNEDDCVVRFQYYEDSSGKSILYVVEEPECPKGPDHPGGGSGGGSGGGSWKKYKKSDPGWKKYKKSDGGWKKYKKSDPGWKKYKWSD

Recombinant human ectodomain αIIbβ3, inactive (before activation) (human), sequence (P08514 other isoform, or with tags, fused parts or gaps limits assumed, chain 1 of 2): as the sequence (P08514 other isoform, or with tags, fused parts or gaps limits assumed, chain 1 of 2) above
Recombinant human ectodomain αIIbβ3, inactive (before activation) (human), sequence (chain, as listed by the source limits assumed, chain 2 of 2): as the sequence (chain, as listed by the source limits assumed, chain 2 of 2) above

Mean Fluorescence Intensity (MFI) [1] | Mean Fluorescence Intensity (MFI) [2] | Mean Fluorescence Intensity (MFI) [3] | Substance
52.7 MFI |  |  | Fibrinogen (from UniProt P02671 20-644; P02675 31-491; P02679 27-437) (ligand)
 | 212 MFI | 942 MFI | PAC-1 (antibody specific for the active upright conformation of αIIbβ3)
